Results as given in article PMC6107277, “Distinct substrate specificity and physicochemical characterization of native human hepatic thymidine phosphorylase” (PLoS ONE, 2018).

Legend:
[1] = target: the molecule itself; assay: SEC + native gel or EMSA; hydroxyapatite homogeneously purified TP (first peak) on Sephadex G-100 in Buffer A (20 mM potassium phosphate pH 8.0, 1 mM DTT, 1 mM EDTA, 1 mM PMSF), 4°C, calibrated with standard proteins; native-PAGE on 10% gel; native about 100 kDa against about 52 kDa on SDS-PAGE
[2] = target: the molecule itself; assay: AUC; sedimentation equilibrium, Beckman XL-A, 15,000 rpm, 20°C, Buffer A, 0.4, 0.2 and 0.1 mg protein/mL, absorbance at 278 nm; global fit to a monomer-dimer-tetramer association model; constants for monomer to dimer (1,2) and dimer to tetramer (2,4)

B1: native human hepatic thymidine phosphorylase (enzyme, human (endogenous in liver), UniProt P19971 11-482, looked up)
chain: APPAPGDFSGEGSQGLPDPSPEPKQLPELIRMKRDGGRLSEADIRGFVAAVVNGSAQGAQIGAMLMAIRLRGMDLEETSVLTQALAQSGQQLEWPEAWRQQLVDKHSTGGVGDKVSLVLAPALAACGCKVPMISGRGLGHTGGTLDKLESIPGFNVIQSPEQMQVLLDQAGCCIVGQSEQLVPADGILYAARDVTATVDSLPLITASILSKKLVEGLSALVVDVKFGGAAVFPNQEQARELAKTLVGVGASLGLRVAAALTAMDKPLGRCVGHALEVEEALLCMDGAGPPDLRDLVTTLGGALLWLSGHAGTQAQGAARVAAALDDGSALGRFERMLAAQGVDPGLARALCSGSPAERRQLLPRAREQEELLAPADGTVELVRALPLALVLHELGAGRSRAGEPLRLGVGAELLVDVGQRLRRGTPWLRVHRDGPALSGPQSRALQEALVLSDRAPFAAPSPFAELVLPPQQ
modifications: N-terminal blocked by an unknown moiety (neither N-formyl nor pyrrolidone carboxylic acid)
notes: thymidine phosphorylase / PD-ECGF, human liver, native subunit of about 50 kDa (49,882 by electrospray MS); DPSPEPKQ = 28-35; Native tissue protein; also called TP; human liver TP; source: purified from human liver (autopsy material) by DEAE-cellulose, Phenyl Sepharose CL-4B and hydroxyapatite chromatography; also used as DEAE-cellulose partially purified fraction and as 50,000 x g liver cytosol
stoichiometry N [1]: 2 | Ka (1,2), monomer to dimer [2]: 581000 M⁻¹ | Ka (2,4), dimer to tetramer [2]: 10100 M⁻¹
